What all share (assay): fluorescence polarisation; fluorescence anisotropy titration; 100 nM FITC-labeled peptide in the cuvette, protein added stepwise; 23°C; 100 mM KCl, 20 mM HEPES pH 7.5, 10% v/v glycerol
What all share (conditions): both partners purified
(In general: Polarisation of emitted light reports the rotation of a fluorescent probe.)

Assay [1] addresses T1, GST-fused Tandem-Tudor domain (TTD) of human UHRF1, residues 126-280, wild type (human, UniProt Q96T88 126-280).
T1 construct: Tandem Tudor domain (TTD) of human UHRF1, UniProt Q96T88, residues 126-280; borders as in Rothbart et al., 2012; also called hUHRF1-TTD; UHRF1-TTD; source: E. coli, purified (Glutathione Agarose 4B); not shown: GST, N-terminal, kept
T1 sequence (looked up): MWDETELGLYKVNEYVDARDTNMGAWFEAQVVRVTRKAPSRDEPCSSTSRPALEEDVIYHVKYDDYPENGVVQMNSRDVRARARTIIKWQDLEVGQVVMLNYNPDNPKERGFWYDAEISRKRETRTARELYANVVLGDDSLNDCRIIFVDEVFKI

Assay [2] concerns the target T2, GST-hUHRF1-TTD (126-280) D142E (human, UniProt Q96T88 126-280, D142E).
T2 construct: Tandem Tudor domain (TTD) of human UHRF1, UniProt Q96T88, residues 126-280; source: E. coli, purified (Glutathione Agarose 4B); not shown: GST, N-terminal, kept
T2 sequence (looked up): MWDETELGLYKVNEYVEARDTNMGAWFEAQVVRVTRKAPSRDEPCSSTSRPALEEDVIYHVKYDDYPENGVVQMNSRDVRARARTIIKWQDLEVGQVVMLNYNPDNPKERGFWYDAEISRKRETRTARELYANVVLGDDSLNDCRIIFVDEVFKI

Assay [3] concerns the target T3, GST-hUHRF1-TTD (126-280) F278A (human, UniProt Q96T88 126-280, F278A).
T3 construct: Tandem Tudor domain (TTD) of human UHRF1, UniProt Q96T88, residues 126-280; source: E. coli, purified (Glutathione Agarose 4B); not shown: GST, N-terminal, kept
T3 sequence (looked up): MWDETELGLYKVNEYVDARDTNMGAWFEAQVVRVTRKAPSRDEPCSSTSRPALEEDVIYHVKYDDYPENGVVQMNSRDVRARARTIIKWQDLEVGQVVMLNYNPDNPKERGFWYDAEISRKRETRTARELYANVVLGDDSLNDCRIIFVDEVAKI

The target of assay [4] is T4, GST-hUHRF1-TTD (126-280) R207Q (human, UniProt Q96T88 126-280, R207Q).
T4 construct: Tandem Tudor domain (TTD) of human UHRF1, UniProt Q96T88, residues 126-280; source: E. coli, purified (Glutathione Agarose 4B); not shown: GST, N-terminal, kept
T4 sequence (looked up): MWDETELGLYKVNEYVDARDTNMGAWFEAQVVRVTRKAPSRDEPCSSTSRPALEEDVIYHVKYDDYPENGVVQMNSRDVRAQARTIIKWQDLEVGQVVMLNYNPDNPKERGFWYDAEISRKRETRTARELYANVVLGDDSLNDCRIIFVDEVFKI

Assay [5] addresses T5, GST-hUHRF1-TTD (126-280) E153Q (human, UniProt Q96T88 126-280, E153Q).
T5 construct: Tandem Tudor domain (TTD) of human UHRF1, UniProt Q96T88, residues 126-280; source: E. coli, purified (Glutathione Agarose 4B); not shown: GST, N-terminal, kept
T5 sequence (looked up): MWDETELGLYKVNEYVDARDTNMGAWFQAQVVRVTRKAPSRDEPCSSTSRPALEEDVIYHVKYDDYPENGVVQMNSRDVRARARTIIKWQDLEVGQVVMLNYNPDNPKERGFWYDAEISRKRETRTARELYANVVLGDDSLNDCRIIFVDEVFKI

The target of assay [6] is T6, GST-hUHRF1-TTD (126-280) D142A (human, UniProt Q96T88 126-280, D142A).
T6 construct: Tandem Tudor domain (TTD) of human UHRF1, UniProt Q96T88, residues 126-280; also called TTD D142A mutant; source: E. coli, purified (Glutathione Agarose 4B); not shown: GST, N-terminal, kept
T6 sequence (looked up): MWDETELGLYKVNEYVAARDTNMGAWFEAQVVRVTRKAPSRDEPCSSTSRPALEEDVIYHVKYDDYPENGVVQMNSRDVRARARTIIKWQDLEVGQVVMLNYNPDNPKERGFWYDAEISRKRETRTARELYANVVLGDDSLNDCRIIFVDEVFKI

In assay [7] the target is T7, GST-hUHRF1-TTD (126-280) E153D (human, UniProt Q96T88 126-280, E153D).
T7 construct: Tandem Tudor domain (TTD) of human UHRF1, UniProt Q96T88, residues 126-280; also called TTD E153D; source: E. coli, purified (Glutathione Agarose 4B); not shown: GST, N-terminal, kept
T7 sequence (looked up): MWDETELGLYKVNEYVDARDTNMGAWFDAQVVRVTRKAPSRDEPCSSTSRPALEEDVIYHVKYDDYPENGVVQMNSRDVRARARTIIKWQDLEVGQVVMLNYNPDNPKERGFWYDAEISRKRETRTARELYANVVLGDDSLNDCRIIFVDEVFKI

Assay [8] has as its target T8, GST-hUHRF1-TTD (126-280) R207L (human, UniProt Q96T88 126-280, R207L).
T8 construct: Tandem Tudor domain (TTD) of human UHRF1, UniProt Q96T88, residues 126-280; source: E. coli, purified (Glutathione Agarose 4B); not shown: GST, N-terminal, kept
T8 sequence (looked up): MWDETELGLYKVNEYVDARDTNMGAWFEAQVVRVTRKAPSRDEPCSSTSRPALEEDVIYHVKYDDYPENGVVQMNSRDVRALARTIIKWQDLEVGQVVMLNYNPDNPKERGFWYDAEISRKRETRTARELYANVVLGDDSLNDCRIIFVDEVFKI

Assay [9] has as its target T9, GST-hUHRF1-TTD (126-280) M224A (human, UniProt Q96T88 126-280, M224A).
T9 construct: Tandem Tudor domain (TTD) of human UHRF1, UniProt Q96T88, residues 126-280; source: E. coli, purified (Glutathione Agarose 4B); not shown: GST, N-terminal, kept
T9 sequence (looked up): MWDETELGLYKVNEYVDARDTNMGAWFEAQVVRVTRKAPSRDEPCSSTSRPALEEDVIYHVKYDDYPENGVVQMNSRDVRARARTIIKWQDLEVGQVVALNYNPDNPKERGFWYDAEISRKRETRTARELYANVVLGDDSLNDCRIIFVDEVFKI

The target in assay [10] is T10, GST-hUHRF1-TTD (126-280) R207A (human, UniProt Q96T88 126-280, R207A).
T10 construct: Tandem Tudor domain (TTD) of human UHRF1, UniProt Q96T88, residues 126-280; source: E. coli, purified (Glutathione Agarose 4B); not shown: GST, N-terminal, kept
T10 sequence (looked up): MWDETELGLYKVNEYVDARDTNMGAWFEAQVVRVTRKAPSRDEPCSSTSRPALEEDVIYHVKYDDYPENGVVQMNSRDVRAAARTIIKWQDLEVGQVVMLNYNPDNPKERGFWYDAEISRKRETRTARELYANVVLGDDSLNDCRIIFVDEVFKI

The target of assay [11] is T11, GST-hUHRF1-TTD (126-280) R207E (human, UniProt Q96T88 126-280, R207E).
T11 construct: Tandem Tudor domain (TTD) of human UHRF1, UniProt Q96T88, residues 126-280; also called TTD R207E; source: E. coli, purified (Glutathione Agarose 4B); not shown: GST, N-terminal, kept
T11 sequence (looked up): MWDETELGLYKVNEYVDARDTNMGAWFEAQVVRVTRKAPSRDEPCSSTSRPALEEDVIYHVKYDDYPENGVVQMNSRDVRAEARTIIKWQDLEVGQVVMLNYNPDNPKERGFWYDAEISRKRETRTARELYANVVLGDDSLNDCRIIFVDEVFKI

The target of assay [12] is T12, GST-hUHRF1-TTD (126-280) E153A (human, UniProt Q96T88 126-280, E153A).
T12 construct: Tandem Tudor domain (TTD) of human UHRF1, UniProt Q96T88, residues 126-280; also called E153A TTD mutant; source: E. coli, purified (Glutathione Agarose 4B); not shown: GST, N-terminal, kept
T12 sequence (looked up): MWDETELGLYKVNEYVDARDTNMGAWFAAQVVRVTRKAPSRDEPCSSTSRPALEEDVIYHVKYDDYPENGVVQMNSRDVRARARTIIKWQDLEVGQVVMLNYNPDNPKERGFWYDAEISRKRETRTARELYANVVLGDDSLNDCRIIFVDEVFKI

In assay [13] the target is T13, GST-hUHRF1-TTD (126-280) R207H (human, UniProt Q96T88 126-280, R207H).
T13 construct: Tandem Tudor domain (TTD) of human UHRF1, UniProt Q96T88, residues 126-280; source: E. coli, purified (Glutathione Agarose 4B); not shown: GST, N-terminal, kept
T13 sequence (looked up): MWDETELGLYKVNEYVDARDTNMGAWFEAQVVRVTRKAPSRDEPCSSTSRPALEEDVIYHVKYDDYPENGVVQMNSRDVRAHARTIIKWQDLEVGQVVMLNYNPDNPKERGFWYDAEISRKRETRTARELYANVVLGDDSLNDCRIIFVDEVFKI

The target in assay [14] is T14, GST-hUHRF1-TTD (126-280) D142N (human, UniProt Q96T88 126-280, D142N).
T14 construct: Tandem Tudor domain (TTD) of human UHRF1, UniProt Q96T88, residues 126-280; source: E. coli, purified (Glutathione Agarose 4B); not shown: GST, N-terminal, kept
T14 sequence (looked up): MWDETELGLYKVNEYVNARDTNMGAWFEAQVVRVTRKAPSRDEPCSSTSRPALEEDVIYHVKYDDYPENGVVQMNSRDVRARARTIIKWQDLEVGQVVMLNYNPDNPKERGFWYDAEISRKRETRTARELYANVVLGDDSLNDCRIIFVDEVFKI

No end group written: not given here. Me3 = trimethyl (trimethyl-lysine)

In general, Kd refers to the concentration at which binding is half-saturated.

B1: FITC-labeled H3(1-19) peptide with K4me1 and K9me3 (peptide, UniProt P68431 2-20, looked up)
peptide: ARTK(Me)QTARK(Me3)STGGKAPRKQ
modifications: also: FITC-labeled (position not given here)
notes: histone H3 N-terminal tail, residues 1-19; also called H3K4me1-K9me3; H3 K4me1-K9me3
Take B1: the Kd was determined as 240 nM in assay [1]; 580 nM in assay [2]; 3900 nM in [3]; 390 nM in assay [4]; 250 nM in assay [5]; 2700 nM in [6]. For the same molecule, the Kd in assay [7] stood at 50 nM; in assay [8], 440 nM; in assay [9], 430 nM; in assay [10] it was 370 nM; in [11] it was 270 nM; in [12], 2 nM. Besides, the dissociation constant (Kd) in assay [13] turned out to be 460 nM; in assay [14], 2 nM.

B2: FITC-labeled H3(1-19) peptide with K9me3 (peptide, UniProt P68431 2-20, looked up)
peptide: ARTKQTARKSTGGKAPRKQ
modifications: K9me3 (trimethyl-lysine at 9); FITC-labeled
notes: histone H3 N-terminal tail, residues 1-19; also called H3K9me3; H3 K9me3
Consider B2, for which the equilibrium dissociation constant (Kd) in [8] and in assay [10] was 900 nM each time.
